Experimental data as given in US20200332015A1 (NAMAB THERAPEUTICS, published 2020).
Values joined by “and” are separate entries in the source; they are usually repeats but may differ in a detail not shown here. Identical values can stand only once. Like-named read-outs stand apart in the source and are kept apart here.

Assays:
[1] = target: T1, cynomolgus monkey Fc-tagged CD137 (R&D Systems, cat. 9324-4B-100) (cynomolgus monkey, UniProt A9YYE7 24-186); assay: SPR T200, antigen-Fc captured, molecule as analyte
T1 construct: also called cynomolgus CD137-Fc chimeric protein
T1 sequence (A9YYE7 entry or part of it): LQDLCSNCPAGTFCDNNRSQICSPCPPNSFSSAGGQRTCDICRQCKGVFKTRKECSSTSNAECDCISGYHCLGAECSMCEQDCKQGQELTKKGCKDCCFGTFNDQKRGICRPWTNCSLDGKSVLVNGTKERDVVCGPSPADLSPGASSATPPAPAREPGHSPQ
Method in brief: (§1)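 Biacore T200: anti-Fc antibody amine-coupled on CM5 chip captures chimeras of different species. Molecules injected as three-fold dilutions (0.12-90 nM) for 3 min, dissociation 10 min, 3 M MgCl₂ regeneration. Apparent ka, kd and KD from 1:1 Langmuir fit.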

[2] = target: T2, Fc tagged human CD137 (R&D Systems, cat. 838-4B-100) (human, UniProt Q07011 24-186); assay: SPR T200, antigen-Fc captured, molecule as analyte
T2 construct: also called CD137 Fc chimera; human CD137-Fc chimeric protein
Method in brief: as §1

[3] = target: T3, mouse Fc-tagged mouse CD137 (R&D Systems, cat. 937-4B-050) (mouse, UniProt P20334 24-187); assay: SPR T200, antigen-Fc captured, molecule as analyte
T3 construct: also called mouse CD137-Fc chimeric protein
T3 sequence (looked up): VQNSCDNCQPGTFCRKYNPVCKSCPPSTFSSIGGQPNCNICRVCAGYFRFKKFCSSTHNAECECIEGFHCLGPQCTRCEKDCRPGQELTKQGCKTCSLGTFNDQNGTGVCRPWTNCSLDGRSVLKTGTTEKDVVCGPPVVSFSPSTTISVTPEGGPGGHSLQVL
Method in brief: as §1

[4] = target: human PDL1-Fc chimeric protein (human, UniProt Q9NZQ7 19-238, limits assumed); assay: SPR T200, antigen-Fc captured, molecule as analyte
Method in brief: as §1

[5] = target: T4, human CD137 expressed on Jurkat cells (human, UniProt Q07011 24-255); assay: cell-based or functional assay
[6] = target: T4, human CD137 expressed on Jurkat cells; assay: cell-based or functional assay; remark: listed apart in the source
[7] = target: T4, human CD137 expressed on Jurkat cells; assay: cell-based or functional assay; remark: listed apart in the source
[8] = target: T4, human CD137 expressed on Jurkat cells; assay: cell-based or functional assay; remark: listed apart in the source
[9] = target: T4, human CD137 expressed on Jurkat cells; assay: cell-based or functional assay; remark: listed apart in the source
[10] = target: T4, human CD137 expressed on Jurkat cells; assay: cell-based or functional assay; remark: listed apart in the source
[11] = target: T4, human CD137 expressed on Jurkat cells; assay: cell-based or functional assay; remark: listed apart in the source
[12] = target: T4, human CD137 expressed on Jurkat cells; assay: cell-based or functional assay; remark: listed apart in the source

B1: PRO951 (38-27-C05 sc02 scDb-i/33-03-G02 sc01 scDb-o) (bispecific antibody)
chain: DIQMTQSPSSLSASVGDRVTITCQASQSINDYLAWYQQKPGKAPKLLIYKASTLASGVPSRFSGSGSGTDFTLTISSLQPEDFATYYCQQGYIITDIDNVFGTGTKVTVLGGGGGSEVQLVESGGGLVQPGGSLRLSCAASGFSFNNDYDMCWVRQAPGKGLEWIGCIDTGDGSTYYASWAKGRFTISRDNSKNTVYLQMNSLRAEDTAVYYCAREAASSSGYGMGYFDLWGQGTLVTVSSGGGGSGGGGSGGGGSGGGGSIQMTQSPSSLSASVGDRVTITCQSSQSVYDNNWLAWYQQKPGKAPKLLIYRASNLASGVPSRFSGSGSGTDFTLTISSLQPEDFATYYCQGTYLSSNWYWAFGTGTKVTVLGGGGGSQVQLQESGPGLVKPSETLSLTCKVSGFSFSSGYDMCWIRQPPGKGLEWIGCVVAGSVDITYYASWAKGRVTISVDSSKNQFSLKLSSVTAADTAVYYCARKDAYSDAFNLWGQGTLVTVSS
notes: scDb, PDL1 x CD137
[1]
  Kd: 6.9 nM
  koff: 0.01 s⁻¹
  kon: 1.5e+06 M⁻¹ s⁻¹
[2]
  Kd: 4.2 nM
  koff: 0.0063 s⁻¹
  kon: 1.5e+06 M⁻¹ s⁻¹
[3]
  binding result: no binding (tested: 0.12-90 nM)
[4]
  Kd: 0.07 nM
  koff: 0.00015 s⁻¹
  kon: 2.2e+06 M⁻¹ s⁻¹
[5]
  EC50 NFkB-luciferase, CHO-PDL1 cells: 0.0337 µg/mL
[6]
  max. activation, NF-kB reporter gene, CHO-PD-L1: 432%
  rel. IC50 (urelumab/test), NF-kB reporter gene, CHO-PD-L1: 2.35 ratio

B2: urelumab (antibody, V domains shown)
VH: QVQLQQWGAGLLKPSETLSLTCAVYGGSFSGYYWSWIRQSPEKGLEWIGEINHGGYVTYNPSLESRVTISVDTSKNQFSLKLSSVTAADTAVYYCARDYGPGNYDWYFDLWGRGTLVTVSS
VL: EIVLTQSPATLSLSPGERATLSCRASQSVSSYLAWYQQKPGQAPRLLIYDASNRATGIPARFSGSGSGTDFTLTISSLEPEDFAVYYCQQRSNWPPALTFGGGTKVEIK
[7]
  EC50 NFkB-luciferase, CHO-PDL1 cells, 6 h: 0.0565 µg/mL
  EC50 NFkB-luciferase, CHO-PDL1 cells, 6 h, + HSA: 0.0777 µg/mL
  Top of curve fit, NFkB-luciferase, CHO-PDL1 cells, 6 h, + HSA: 106
[5]
  EC50 NFkB-luciferase, CHO-PDL1 cells: 0.0791 µg/mL
[8]
  EC50 NFkB-luciferase, HCC827 with IFNy: 0.114 µg/mL and 0.145 µg/mL and 0.108 µg/mL
[9]
  EC50 NFkB-luciferase, HCC827 with IFNy stimulation: 0.0528 µg/mL
  EC50 NFkB-luciferase, HCC827 without IFNy stimulation: 0.0475 µg/mL
[10]
  EC50 NFkB-luciferase, CHO-PDL1 cells: 0.0865 µg/mL and 0.0795 µg/mL and 0.104 µg/mL
[11]
  EC50 NFkB-luciferase, HCC827 without IFNy: 0.212 µg/mL and 0.11 µg/mL and 0.112 µg/mL
[12]
  EC50 NFkB-luciferase, CHO-PDL1 cells, 24 h: 0.0466 µg/mL
  EC50 NFkB-luciferase, CHO-PDL1 cells, 24 h, + HBA (so in the source): 0.0782 µg/mL
  Top of curve fit, NFkB-luciferase, CHO-PDL1 cells, 24 h, + HBA (so in the source): 90.5
